Numbering of substitutions follows the chain as printed.
What was measured:
[1] = molecular target: T1, human gc chain (common gamma chain of cytokine receptors) on the cell surface (human, UniProt P31785 23-369); assay: cell-based or functional assay
T1 sequence (looked up): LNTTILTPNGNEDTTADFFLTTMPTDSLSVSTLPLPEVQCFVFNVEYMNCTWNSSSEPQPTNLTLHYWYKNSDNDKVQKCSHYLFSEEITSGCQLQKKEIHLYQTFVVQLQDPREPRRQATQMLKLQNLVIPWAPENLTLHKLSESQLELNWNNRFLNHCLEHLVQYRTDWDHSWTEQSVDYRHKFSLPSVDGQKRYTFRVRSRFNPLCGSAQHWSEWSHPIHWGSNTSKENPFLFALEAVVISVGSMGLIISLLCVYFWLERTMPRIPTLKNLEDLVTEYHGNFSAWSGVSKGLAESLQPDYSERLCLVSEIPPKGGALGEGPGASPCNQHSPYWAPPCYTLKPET

[2] = molecular target: T2, human gc chain mutant, LSE replaced by Ala (Domain 2 Loop AB), myc-tagged, on COS-7 cells (human, UniProt P31785 23-369); assay: staining of transfected COS-7 cells, FACS
T2 construct: whole, on cells; not shown: 9 amino acid myc tag at the 5' end of the construct
T2 sequence (looked up): T1 sequence (looked up) with L143A, S144A, E145A
Description: (§1) COS-7 cells are transiently transfected with 20 ug of DNA encoding the gc chain mutant or wildtype cDNA and 180 ug of herring sperm carrier DNA. After 2-3 days, COS-7 cells are harvested and analyzed by immnunofluorescent staining with anti-gc chain mAbs. MAbs are used at 10 ug/ml in PBS-1% BSA-0.02% sodium azide and allowed 30 minutes to bind to 1×10⁶ COS-7 cells. Cells are then washed 2 times, and bound mAb is detected with PE-conjugated goat anti-mouse Fc specific antibodies. The % of positive cells staining with the anti-gc chain mAb over an irrelevant control Ig is determined for a given gc chain mutant and for wildtype gc chain. […] Data are adjusted for any differences in level of expression of a mutant vs. wildtype constructs by measuring the binding of a mAb specific for a 9 amino acid myc tag engineered at the 5′ end of each gc chain construct. […] Values reduced from 100% indicate amino acid mutations which affect mAb binding.
(§2) The value “100%” indicates no effect of mutation and lower percentages indicate greater losses in binding as a result of the sequence change.

[3] = molecular target: T3, human gc chain mutant, VIP replaced by Ala (interdomain residues), myc-tagged, on COS-7 cells (human, UniProt P31785 23-369); assay: staining of transfected COS-7 cells, FACS
T3 construct: whole, on cells; not shown: 9 amino acid myc tag at the 5' end of the construct
T3 sequence (looked up): T1 sequence (looked up) with V130A, I131A, P132A
Description: as §1, §2

[4] = molecular target: T4, human gc chain mutant, LYQ replaced by Ala (Domain 1 Loop EF), myc-tagged, on COS-7 cells (human, UniProt P31785 23-369); assay: staining of transfected COS-7 cells, FACS
T4 construct: whole, on cells; not shown: 9 amino acid myc tag at the 5' end of the construct
T4 sequence (looked up): T1 sequence (looked up) with L102A, Y103A, Q104A
Description: as §1, §2

[5] = molecular target: T5, human gc chain mutant, ESQ replaced by Ala (Domain 2 Loop AB), myc-tagged, on COS-7 cells (human, UniProt P31785 23-369); assay: staining of transfected COS-7 cells, FACS
T5 construct: whole, on cells; not shown: 9 amino acid myc tag at the 5' end of the construct
T5 sequence (looked up): T1 sequence (looked up) with E145A, S146A, Q147A
Description: as §1, §2

[6] = molecular target: T6, human gc chain mutant, FNP replaced by Ala (Domain 2 Loop FQ), myc-tagged, on COS-7 cells (human, UniProt P31785 23-369); assay: staining of transfected COS-7 cells, FACS
T6 construct: whole, on cells; not shown: 9 amino acid myc tag at the 5' end of the construct
T6 sequence (looked up): T1 sequence (looked up) with F205A, N206A, P207A
Description: as §1, §2

B1: CP.B8 monoclonal antibody (murine anti-human gc chain, hybridoma ATCC HB-12107) (antibody, V domains shown)
VH: LQESGPGLVAPSQSLSITCTVSGFSLTSYGVHWVRQPPGKGLEWLGVIWAGGSTNYNSALMSRLNINRDNSKSQIFLKMNSLQTDDTAIYYCAREGSTVDSMDYWGQGTTVT
VL: DIVMTQSHKFMSTSVGDSITITCKASQDVTTAVAWYQQKPGQSPKLLIYWASTRHTGVPDRFTGSGSGTDYTLTISSVQAEDLALYYCQQHYITPWTFGGGTKLEI
notes: Used unconjugated and biotin-conjugated; also called CP.B8 mAb; mAb CP.B8
inhibition of IL-2-induced T cell proliferation, 73 pM IL-2, mAb at 100 ug/ml, relative to MOPC21 [1]: 51%
inhibition of IL-2-induced T cell proliferation, 219 pM IL-2, mAb at 100 ug/ml, relative to MOPC21 [1]: 44%
% binding to mutant gc chain/wildtype gc chain [2]: 90%
% binding to mutant gc chain/wildtype gc chain [3]: 21%
% binding to mutant gc chain/wildtype gc chain [4]: 13%
% binding to mutant gc chain/wildtype gc chain [5]: 75%
% binding to mutant gc chain/wildtype gc chain [6]: 28%

Reference: patent publication US20020028202A1 (Biogen, published 2002)
